Key:
[1] = target: T1, eGFP-53BP1 (wild-type TP53-binding protein 1 tagged with enhanced green fluorescent protein), Q12888; experiment: Number and Brightness (NB) analysis of fluorescence fluctuation spectroscopy; frame scans in nuclei of live DIvA cells expressing eGFP-tagged 53BP1 constructs, 37 °C, brightness windows calibrated on free eGFP (B monomer 1.15, dimer 1.30, oligomer >1.60); before and 30-60 min after 4OHT induction of DSBs; also after knockdown of endogenous 53BP1; conditions: remark: other sources report otherwise
T1 chain: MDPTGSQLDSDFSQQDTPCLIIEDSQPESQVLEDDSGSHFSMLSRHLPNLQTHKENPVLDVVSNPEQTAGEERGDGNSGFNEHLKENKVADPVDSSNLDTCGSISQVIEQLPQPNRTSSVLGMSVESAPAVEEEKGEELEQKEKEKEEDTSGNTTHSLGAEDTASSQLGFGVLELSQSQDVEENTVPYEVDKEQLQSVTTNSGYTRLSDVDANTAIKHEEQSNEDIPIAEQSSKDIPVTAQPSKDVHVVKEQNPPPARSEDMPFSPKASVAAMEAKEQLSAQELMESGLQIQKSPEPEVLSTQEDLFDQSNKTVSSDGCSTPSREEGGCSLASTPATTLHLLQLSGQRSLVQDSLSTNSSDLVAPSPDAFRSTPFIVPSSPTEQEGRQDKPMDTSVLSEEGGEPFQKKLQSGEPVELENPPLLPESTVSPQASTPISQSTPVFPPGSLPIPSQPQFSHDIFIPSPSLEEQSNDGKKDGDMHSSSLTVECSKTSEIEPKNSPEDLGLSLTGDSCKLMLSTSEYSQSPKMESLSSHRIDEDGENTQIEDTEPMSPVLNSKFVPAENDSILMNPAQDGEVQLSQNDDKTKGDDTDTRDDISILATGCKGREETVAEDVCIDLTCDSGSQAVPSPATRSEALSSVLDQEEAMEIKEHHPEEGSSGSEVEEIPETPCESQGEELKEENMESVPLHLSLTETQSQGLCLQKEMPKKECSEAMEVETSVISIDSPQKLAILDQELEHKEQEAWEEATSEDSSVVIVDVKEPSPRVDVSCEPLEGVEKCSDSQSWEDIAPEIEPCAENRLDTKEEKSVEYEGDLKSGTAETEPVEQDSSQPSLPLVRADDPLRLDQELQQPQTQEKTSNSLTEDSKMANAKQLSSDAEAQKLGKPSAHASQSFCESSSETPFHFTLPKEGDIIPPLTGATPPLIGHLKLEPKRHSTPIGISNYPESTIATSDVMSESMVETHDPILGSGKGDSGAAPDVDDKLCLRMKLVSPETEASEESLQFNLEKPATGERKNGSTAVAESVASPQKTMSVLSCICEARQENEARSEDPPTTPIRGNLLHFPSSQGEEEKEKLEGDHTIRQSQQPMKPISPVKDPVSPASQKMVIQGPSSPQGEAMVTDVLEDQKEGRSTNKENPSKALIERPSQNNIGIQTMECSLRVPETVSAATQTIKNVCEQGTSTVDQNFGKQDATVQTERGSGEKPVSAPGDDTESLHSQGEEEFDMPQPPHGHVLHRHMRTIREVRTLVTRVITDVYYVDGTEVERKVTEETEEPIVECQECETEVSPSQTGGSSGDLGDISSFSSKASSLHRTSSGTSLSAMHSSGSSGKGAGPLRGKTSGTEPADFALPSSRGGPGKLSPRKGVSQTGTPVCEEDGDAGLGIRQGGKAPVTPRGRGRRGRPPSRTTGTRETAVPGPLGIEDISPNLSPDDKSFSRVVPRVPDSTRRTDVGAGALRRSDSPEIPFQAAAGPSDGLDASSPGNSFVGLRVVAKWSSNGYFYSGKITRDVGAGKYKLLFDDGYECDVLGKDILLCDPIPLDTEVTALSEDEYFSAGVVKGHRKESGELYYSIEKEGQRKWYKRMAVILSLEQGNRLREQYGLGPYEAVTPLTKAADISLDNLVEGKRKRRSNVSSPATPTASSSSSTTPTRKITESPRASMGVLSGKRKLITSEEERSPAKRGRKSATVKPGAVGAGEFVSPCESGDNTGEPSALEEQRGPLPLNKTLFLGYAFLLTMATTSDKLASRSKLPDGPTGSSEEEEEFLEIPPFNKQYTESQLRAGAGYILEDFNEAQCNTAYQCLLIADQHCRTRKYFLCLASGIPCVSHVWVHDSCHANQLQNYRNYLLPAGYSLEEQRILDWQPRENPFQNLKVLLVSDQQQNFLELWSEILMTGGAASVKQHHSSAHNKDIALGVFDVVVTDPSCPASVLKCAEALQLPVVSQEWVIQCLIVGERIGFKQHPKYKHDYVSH

[2] = target: T1, eGFP-53BP1 (wild-type TP53-binding …); experiment: cross-pair correlation function (cross-pCF) analysis, two-colour fluorescence cross-correlation; two-channel line scans in live DIvA cells co-transfected with eGFP- and mKate2-tagged copies of the same 53BP1 construct, treated with 4OHT for 60 min; dimer fraction from cross pCF0 against pCF0, corrected for spectral bleed through; conditions: remark: other sources report otherwise

fraction of dimer (NB, percent of pixels) [1]: 26% | fraction of oligomer (NB, percent of pixels) [1]: 2% | stoichiometry N [1]: 2 | fraction of 53BP1 dimer (cross pCF0 against pCF0) [2]: 31%
B1: eGFP-53BP1 (wild-type TP53-binding protein 1 tagged with enhanced green fluorescent protein), Q12888 1-1972 (natural protein)
chain: MDPTGSQLDSDFSQQDTPCLIIEDSQPESQVLEDDSGSHFSMLSRHLPNLQTHKENPVLDVVSNPEQTAGEERGDGNSGFNEHLKENKVADPVDSSNLDTCGSISQVIEQLPQPNRTSSVLGMSVESAPAVEEEKGEELEQKEKEKEEDTSGNTTHSLGAEDTASSQLGFGVLELSQSQDVEENTVPYEVDKEQLQSVTTNSGYTRLSDVDANTAIKHEEQSNEDIPIAEQSSKDIPVTAQPSKDVHVVKEQNPPPARSEDMPFSPKASVAAMEAKEQLSAQELMESGLQIQKSPEPEVLSTQEDLFDQSNKTVSSDGCSTPSREEGGCSLASTPATTLHLLQLSGQRSLVQDSLSTNSSDLVAPSPDAFRSTPFIVPSSPTEQEGRQDKPMDTSVLSEEGGEPFQKKLQSGEPVELENPPLLPESTVSPQASTPISQSTPVFPPGSLPIPSQPQFSHDIFIPSPSLEEQSNDGKKDGDMHSSSLTVECSKTSEIEPKNSPEDLGLSLTGDSCKLMLSTSEYSQSPKMESLSSHRIDEDGENTQIEDTEPMSPVLNSKFVPAENDSILMNPAQDGEVQLSQNDDKTKGDDTDTRDDISILATGCKGREETVAEDVCIDLTCDSGSQAVPSPATRSEALSSVLDQEEAMEIKEHHPEEGSSGSEVEEIPETPCESQGEELKEENMESVPLHLSLTETQSQGLCLQKEMPKKECSEAMEVETSVISIDSPQKLAILDQELEHKEQEAWEEATSEDSSVVIVDVKEPSPRVDVSCEPLEGVEKCSDSQSWEDIAPEIEPCAENRLDTKEEKSVEYEGDLKSGTAETEPVEQDSSQPSLPLVRADDPLRLDQELQQPQTQEKTSNSLTEDSKMANAKQLSSDAEAQKLGKPSAHASQSFCESSSETPFHFTLPKEGDIIPPLTGATPPLIGHLKLEPKRHSTPIGISNYPESTIATSDVMSESMVETHDPILGSGKGDSGAAPDVDDKLCLRMKLVSPETEASEESLQFNLEKPATGERKNGSTAVAESVASPQKTMSVLSCICEARQENEARSEDPPTTPIRGNLLHFPSSQGEEEKEKLEGDHTIRQSQQPMKPISPVKDPVSPASQKMVIQGPSSPQGEAMVTDVLEDQKEGRSTNKENPSKALIERPSQNNIGIQTMECSLRVPETVSAATQTIKNVCEQGTSTVDQNFGKQDATVQTERGSGEKPVSAPGDDTESLHSQGEEEFDMPQPPHGHVLHRHMRTIREVRTLVTRVITDVYYVDGTEVERKVTEETEEPIVECQECETEVSPSQTGGSSGDLGDISSFSSKASSLHRTSSGTSLSAMHSSGSSGKGAGPLRGKTSGTEPADFALPSSRGGPGKLSPRKGVSQTGTPVCEEDGDAGLGIRQGGKAPVTPRGRGRRGRPPSRTTGTRETAVPGPLGIEDISPNLSPDDKSFSRVVPRVPDSTRRTDVGAGALRRSDSPEIPFQAAAGPSDGLDASSPGNSFVGLRVVAKWSSNGYFYSGKITRDVGAGKYKLLFDDGYECDVLGKDILLCDPIPLDTEVTALSEDEYFSAGVVKGHRKESGELYYSIEKEGQRKWYKRMAVILSLEQGNRLREQYGLGPYEAVTPLTKAADISLDNLVEGKRKRRSNVSSPATPTASSSSSTTPTRKITESPRASMGVLSGKRKLITSEEERSPAKRGRKSATVKPGAVGAGEFVSPCESGDNTGEPSALEEQRGPLPLNKTLFLGYAFLLTMATTSDKLASRSKLPDGPTGSSEEEEEFLEIPPFNKQYTESQLRAGAGYILEDFNEAQCNTAYQCLLIADQHCRTRKYFLCLASGIPCVSHVWVHDSCHANQLQNYRNYLLPAGYSLEEQRILDWQPRENPFQNLKVLLVSDQQQNFLELWSEILMTGGAASVKQHHSSAHNKDIALGVFDVVVTDPSCPASVLKCAEALQLPVVSQEWVIQCLIVGERIGFKQHPKYKHDYVSH
